The data set has as its target T1, 562(P4-P3′)336 factor VIII mutant (procofactor).
T1 chain 1: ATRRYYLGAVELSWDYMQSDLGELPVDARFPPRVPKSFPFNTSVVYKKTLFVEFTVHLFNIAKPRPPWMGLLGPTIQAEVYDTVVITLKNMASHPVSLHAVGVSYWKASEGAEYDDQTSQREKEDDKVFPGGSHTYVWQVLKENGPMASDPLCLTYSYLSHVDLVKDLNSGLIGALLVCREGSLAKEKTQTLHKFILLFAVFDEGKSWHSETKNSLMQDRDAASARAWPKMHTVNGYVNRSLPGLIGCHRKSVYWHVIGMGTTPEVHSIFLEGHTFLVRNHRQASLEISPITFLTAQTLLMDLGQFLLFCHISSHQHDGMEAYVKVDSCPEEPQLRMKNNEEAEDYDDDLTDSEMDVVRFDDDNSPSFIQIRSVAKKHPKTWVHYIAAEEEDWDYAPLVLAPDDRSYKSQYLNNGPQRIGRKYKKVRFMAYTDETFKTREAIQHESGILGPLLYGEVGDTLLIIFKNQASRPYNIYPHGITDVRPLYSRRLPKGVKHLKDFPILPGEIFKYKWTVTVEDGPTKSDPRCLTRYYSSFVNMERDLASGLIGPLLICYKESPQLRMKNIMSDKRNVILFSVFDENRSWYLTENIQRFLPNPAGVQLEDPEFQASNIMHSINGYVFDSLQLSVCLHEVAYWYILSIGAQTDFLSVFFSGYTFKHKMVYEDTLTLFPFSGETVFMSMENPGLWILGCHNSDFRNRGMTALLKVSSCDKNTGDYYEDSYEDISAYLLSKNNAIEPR
T1 chain 2: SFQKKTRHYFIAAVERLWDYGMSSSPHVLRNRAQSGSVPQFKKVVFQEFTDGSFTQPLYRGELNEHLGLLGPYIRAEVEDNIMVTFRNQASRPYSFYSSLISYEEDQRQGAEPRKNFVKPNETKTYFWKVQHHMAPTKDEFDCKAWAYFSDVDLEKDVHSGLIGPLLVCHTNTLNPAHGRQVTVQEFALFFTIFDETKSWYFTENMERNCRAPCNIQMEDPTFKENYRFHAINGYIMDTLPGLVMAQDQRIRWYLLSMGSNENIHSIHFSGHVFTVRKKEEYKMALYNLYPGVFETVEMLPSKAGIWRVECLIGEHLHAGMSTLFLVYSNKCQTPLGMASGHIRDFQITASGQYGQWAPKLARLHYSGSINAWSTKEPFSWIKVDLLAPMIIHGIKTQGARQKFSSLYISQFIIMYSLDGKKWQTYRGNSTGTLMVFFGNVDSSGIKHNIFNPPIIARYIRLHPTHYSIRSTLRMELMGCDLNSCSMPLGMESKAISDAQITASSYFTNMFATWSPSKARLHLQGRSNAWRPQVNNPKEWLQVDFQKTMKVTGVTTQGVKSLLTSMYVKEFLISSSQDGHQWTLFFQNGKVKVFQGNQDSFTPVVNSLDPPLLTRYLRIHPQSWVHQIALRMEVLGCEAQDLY

B1: human activated protein C (protein)
chain 1: ANSFLEELRHSSLERECIEEICDFEEAKEIFQNVDDTLAFWSKHVDGDQCLVLPLEHPCASLCCGHGTCIDGIGSFSCDCRSGWEGRFCQREVSFLNCSLDNGGCTHYCLEEVGWRRCSCAPGYKLGDDLLQCHPAVKFPCGRPWKRMEKKRSHL
chain 2: LIDGKMTRRGDSPWQVVLLDSKKKLACGAVLIHPSWVLTAAHCMDESKKLLVRLGEYDLRRWEKWELDLDIKEVFVHPNYSKSTTDNDIALLHLAQPATLSQTIVPICLPDSGLAERELNQAGQETLVTGWGYHSSREKEAKRNRTFVLNFIKIPVVPHNECSEVMSNMVSENMLCAGILGDRQDACEGDSGGPMVASFHGTWFLVGLVSWGEGCGLLHNYGVYTKVSRYLDWIHGHIRDKEAPQKSWAP
B1 came in with an A2 Cleavage (nM A2/min/nM APC) (nM A2/min/nM APC) of 2.7.
